This is an account of results in article PMC7718890, “High-throughput screening to discover inhibitors of the CarD·RNA polymerase protein–protein interaction in Mycobacterium tuberculosis” (Scientific Reports, 2020).

This assay addresses Mycobacterium tuberculosis RNA polymerase, wild type (Mycobacterium tuberculosis) (UniProt P9WGY9). Briefly: FP.

For CarD T24C labelled with BODIPY-FL, the equilibrium dissociation constant (Kd) – broadly, the concentration at which binding is half-saturated – was determined as 56 nM.
